This passage reports Fold suppression of T cell proliferation by wildtype B6 MSCs (CFSE, anti-CD3-activated Balb/c splenocytes), Fold suppression of T cell proliferation when PD-L1 is absent from the MSCs (B6 PD-L1-/- MSCs; CFSE, anti-CD3-activated Balb/c splenocytes) and T cell proliferation (CFSE-labelled Balb/c splenocytes activated with anti-CD3, flow cytometry); percent proliferating with wildtype B6 MSCs, against 87% without MSCs results from patent publication US20090324609A1.

The assay concerns the target PD-1 receptor on T cells of anti-CD3-activated Balb/c splenocytes (mouse) (UniProt Q02242). Kind of assay: cell-based or functional assay.
UniProt Q02242, sequence (Q02242 25-288): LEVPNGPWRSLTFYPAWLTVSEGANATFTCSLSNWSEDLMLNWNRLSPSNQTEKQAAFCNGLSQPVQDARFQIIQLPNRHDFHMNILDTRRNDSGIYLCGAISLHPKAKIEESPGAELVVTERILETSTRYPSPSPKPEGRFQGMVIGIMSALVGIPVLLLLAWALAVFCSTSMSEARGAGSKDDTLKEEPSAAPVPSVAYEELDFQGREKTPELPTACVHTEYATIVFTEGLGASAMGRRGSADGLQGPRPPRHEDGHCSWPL

Substance “PD-L1 (Programmed death ligand 1) on the surface of wildtype C57BL/6 mouse mesenchymal stem cells (from UniProt Q9EP73 19-290)” displayed a Fold suppression of T cell proliferation by wildtype B6 MSCs (CFSE, anti-CD3-activated Balb/c splenocytes) above 5 fold; a Fold suppression of T cell proliferation when PD-L1 is absent from the MSCs (B6 PD-L1-/- MSCs; CFSE, anti-CD3-activated Balb/c splenocytes) below 2 fold; a T cell proliferation (CFSE-labelled Balb/c splenocytes activated with anti-CD3, flow cytometry); percent proliferating with wildtype B6 MSCs, against 87% without MSCs of 16%.
